The values that follow come from patent publication US20160271157A1, “BETA-CATENIN” (UCL BUSINESS PLC, priority 2013, published 2016).

Holding throughout (type): cell-based
The test system of test [1] is Wnt induced calcium release. In words: Wnt induced [Ca2+]i release after preincubation with thapsigargin or membrane potential regulating compounds. The conditions noted are these: preincubation 5 min; Wnt 9B 0.1 μg/ml as example; CsCl 5 mM; CdCl2 1 mM; TEA 10 mM; Amiodarone 75 μM; Tolbutamide 1 mM; Isradipine 100 μM; Nifedipine 1 mM; Minoxidil 25 μM; Atenolol 37.5 μM; Propanolol 50 μM; Furosemide 150 μM. How it is done:
The imaging protocol was developed in the inventor's laboratory and has been described in detail, elsewhere (Wang at al., (2010) PLoS ONE 5, e10456). Briefly, 100000-200000 PC3, MCF7, 253J or Cos 7 cells were plated on 35 mm FluoroDish (WPI) and grown for 48 h; calcium indicators Fluo-4 (Invitrogen) and FuraRed (Invitrogen) at 1 ng/ml were added to FluoroDish containing only 1 ml of culture medium and incubated for 15-20 min at 37° C. The culture medium was removed and washed (×2) and replaced with 1 ml PBS. Live cell calcium Imaging was performed on an Olympus FluoView FV 1000 confocal microscope (Olympus KeyMed) equipped with a 20× dry objective (numerical aperture=0.75). Calcium indicators were excited with an argon laser line (488 nm) and emissions recorded in the green channel (500-560 nm) for Fluo-4 and red channel (600-700 nm) for FuraRed after addition of vehicle control (PBS) or Wnt X (30-600 ng/ml). Images were acquired every 1.1 or 2.2 seconds for up to 600-800s; image and data acquisition was performed using FluoView 1000 software (Olympus, UK). Fluorescent intensity was measured and data exported as a tab delimited file for further analysis using a spreadsheet. All imaging experiments were performed in duplicate; intracellular calcium at 100 ng/ml was measured in at least 3-12 different passages (passage numbers 25 to 37) of cell line for each Wnt ligand. Wnt 11 was tested in at least 5 different passages at 3 different concentrations. […]
To measure the effect of changes in membrane potential on [Ca^2+]i release using the protocol described above, in some experiments, external solution (PBS) was substituted with varying concentrations of KCl. In other experiments chemical inhibitors of K^+ channels such as TEA, CsCl or tolbutamide (Sigma-Aldrich) were added to the cells grown on FluoroDish, at 37° C., at least 5 min prior to addition of Wnt ligands.
(§1) After image acquisition, regions of interest (ROI) were drawn over individual PC3 cells (up to 25) in a single frame and calcium intensity measurements were made using FluoView 1000 software (Olympus, UK). The measurements were exported as a tab delimited file into a spreadsheet for further analysis and Fluo4/Fura Red ratios were calculated. The waveform, a product of the ratio of Fluo4 and FuraRed over the period of measurement was used to measure the kinetics of the activation of [Ca^2+]i release in PC3 cells, in response to different Wnt ligands. The time constants (rise, dwell and fall times) were calculated by first fitting the Fluo4/FuraRed ratio to a single Gaussian function (Origin Lab Corp., MA); a lower (10%) and upper (90%) amplitude thresholding method was then used to calculate the time constants (s). Statistical significance was calculated using Mann Whitney U test.

The test system of test [2] is β-catenin translocation to the nucleus. Description: β-catenin immunocytochemistry and nuclear co-localization analysis, PC3. Conditions: PC3 cells; for Pearson coefficient of nuclear co-localization of β-catenin: Wnt 100 ng/ml vs control, p<0.001 Mann Whitney test. The procedure: Immunostaining was performed in two different laboratories, independently with the experimenter blind to the identity of the treatment. Either cells used in FluoroDish, post [Ca^2+]i experiments using dyes (see above) or grown in 8 well chamber glass slides (Lab Tek II, Nunc) were used. For Wnt ligand treatment, the culture medium replaced with PBS (without calcium) at 37° C. The experiments were replicated for Wnt ligand or vehicle control as described for [Ca^2+]i measurements. Briefly, Wnt ligands were added and chamber slides incubated at 37° C. for up to 20 min. Chamber wells were washed 3× with 0.5 ml PBS and cells were fixed with 0.5 ml 4% formalin for 30 min at 4° C. Cells were washed 3× with ice cold PBS and stored in 0.5 ml PBS at 4° C. for immunostaining. In some experiments PC3 cells were treated with thaspsigargin as described above.
For immunostaining cells were washed twice for 5 minutes in TBST (20 mM Tris pH 7.4, 0.9% NaCl, 0.1% Tween 20, Sigma). Cells were then incubated in 20% normal goat serum (NGS)/TBST for 30 min at room temperature, the chambers were drained and cells were incubated with mouse anti-β-catenin (ab22656, Abcam, UK) at 1:500 dilution in NGS/TBST overnight at 4° C. Following two further 5 min washes in TBST sections were incubated in goat anti-mouse peroxidase fab (Abcam, UK) at 1:500 dilution for 30 min at room temperature. Following a further two 5 min washes in TBST cells were incubated with tyramide Cy3 (Perkin Elmer) for 10 min at room temperature. Sections were washed twice for 5 min in TBST before nuclear counterstaining with DAPI. After a final two 5 min washes, the chambers were removed and cover slip placed on slides using Permafluor (Thermo Shandon).
Fluorescence immunocytochemical staining for β-catenin expression in cell lines was imaged using Olympus Fluoview 1000 Confocal Microscope (Olympus KeyMed) mounted on an Olympus IX81 inverted microscope using a 20×0.7 NA or 40×1.0 NA dry objective with a zoom of ×3.4′,6-diamidino-2-phenylindole (DAPI, nuclear counterstain) was excited at 405 nm with an emission of 415-500 nm; Cy3 (β-catenin label) signal was excited at 561 nm with an emission spectrum between 570-670 nm. […] Z-stacks of at least 3 fields per sample were imaged and saved in Olympus FV (OIF or OIB) file format.
Nuclear co-localization of β-catenin was calculated by importing FV files for untreated, control or treated cells, into colocalization plugin of Fiji software (http://fiji.sc/Fiji) for Cy3 (β-catenin) and DAPI (nuclear) signals. Pearson co-relation of colocalization were tabulated for 25-90 cells (from 2-5 different passages of cells) using ROI analysis. Statistical significance between untreated and treated cells was calculated using Mann Whitney U test.

In test [3] the test system is PC3 prostate cancer cell line. Description: Live [Ca2+]i imaging (Fluo4/FuraRed ratio) after addition of Wnt ligand. The conditions noted are these: PC3 cells; for intracellular calcium mobilization ([Ca2+]i release) in response to Wnt ligand: 100 ng/ml Wnt ligand peptide, ratio of Fluo4/Fura Red; for dependence of time constants (dwell time) on Wnt ligand concentration / co-operativity: three concentrations of each Wnt ligand, first-order fit; for rise and fall time of [Ca2+]i release: Wnt peptide 100 ng/ml. How it is done: The imaging protocol was developed in the inventor's laboratory and has been described in detail, elsewhere (Wang at al., (2010) PLoS ONE 5, e10456). Briefly, 100000-200000 PC3, MCF7, 253J or Cos 7 cells were plated on 35 mm FluoroDish (WPI) and grown for 48 h; calcium indicators Fluo-4 (Invitrogen) and FuraRed (Invitrogen) at 1 ng/ml were added to FluoroDish containing only 1 ml of culture medium and incubated for 15-20 min at 37° C. The culture medium was removed and washed (×2) and replaced with 1 ml PBS. Live cell calcium Imaging was performed on an Olympus FluoView FV 1000 confocal microscope (Olympus KeyMed) equipped with a 20× dry objective (numerical aperture=0.75). Calcium indicators were excited with an argon laser line (488 nm) and emissions recorded in the green channel (500-560 nm) for Fluo-4 and red channel (600-700 nm) for FuraRed after addition of vehicle control (PBS) or Wnt X (30-600 ng/ml). Images were acquired every 1.1 or 2.2 seconds for up to 600-800s; image and data acquisition was performed using FluoView 1000 software (Olympus, UK). Fluorescent intensity was measured and data exported as a tab delimited file for further analysis using a spreadsheet. All imaging experiments were performed in duplicate; intracellular calcium at 100 ng/ml was measured in at least 3-12 different passages (passage numbers 25 to 37) of cell line for each Wnt ligand. Wnt 11 was tested in at least 5 different passages at 3 different concentrations. To test if the Wnt activated calcium release was from [Ca^2+]i stores, in some cases PC3 cells, loaded with calcium dyes, were incubated with 1-5 μM of thapsigargin (Sigma, UK), resuspended in dimethyl sulfoxide (DMSO), for 20 min at 37° C., prior to addition of Wnt ligand and live calcium imaging (as described above).
The experiments were performed using 35 mm, glass bottom, FluoroDish containing 1 ml PBS, at 37° C., to which ligands were added at desired concentration. In a static, non-superfusing assay system there is a lag time before the start of a response, in this case an increase in the intensity of the Fluo4 signal due to the release of free calcium. To measure the diffusion constant under these conditions we used Pontamine Sky Blue (Sigma Aldridge), which fluoresces in the red spectrum with 488 nm excitation, using standard practice for adding ligands; the diffusion constant was measured to be 23.3±2.1 μm·s^−1 (means±S.E.M, n=8). The calcium wave, in response to Wnt ligands, travelled across the FluoroDish.
as §1
Background: A change in cytosolic calcium serves as a functional read-out for many receptors and channels.

As for `COC(=O)C1=C(C)NC(C)=C(C(=O)OC(C)C)C1c1cccc2nonc12` (centres unmarked) [Isradipine], the “Wnt ligand induced calcium release after preincubation with MPRC (FIG. 16)” value in test [1] is reported as “inhibited”.

Regarding `C[C@@H]1O[C@@H](O[C@H]2C[C@@H](O)[C@]3(CO)[C@H]4[C@H](O)C[C@]5(C)[C@@H](C6=CC(=O)OC6)CC[C@]5(O)[C@@H]4CC[C@]3(O)C2)[C@H](O)[C@H](O)[C@H]1O` [Ouabain, reference compound], the “β-catenin translocation to the nucleus after pretreatment with Ouabain (FIG. 21)” value in test [2] (Wnt5A treated) was “increases”.

Take `CC(C)NCC(O)COc1ccc(CC(N)=O)cc1` (centres unmarked) [Atenolol]: the “Wnt ligand induced calcium release after preincubation with MPRC (FIG. 16)” value in test [1] is on record as “inhibited”.

B1: Wnt7A: Recombinant Wnt peptide purchased from R&D systems (protein, UniProt O00755 32-349, looked up)
Protein Wnt-7a: LGASIICNKIPGLAPRQRAICQSRPDAIIVIGEGSQMGLDECQFQFRNGRWNCSALGERTVFGKELKVGSREAAFTYAIIAAGVAHAITAACTQGNLSDCGCDKEKQGQYHRDEGWKWGGCSADIRYGIGFAKVFVDAREIKQNARTLMNLHNNEAGRKILEENMKLECKCHGVSGSCTTKTCWTTLPQFRELGYVLKDKYNEAVHVEPVRASRNKRPTFLKIKKPLSYRKPMDTDLVYIEKSPNYCEEDPVTGSVGTQGRACNKTAPQASGCDLMCCGRGYNTHQYARVWQCNCKFHWCCYVKCNTCSERTEMYTCK
With B1, in test [3], the “intracellular calcium mobilization ([Ca2+]i release) in response to Wnt ligand” value (“intracellular calcium mobilization” below) was “induce intracellular calcium mobilization” and the “dependence of time constants (dwell time) on Wnt ligand concentration / co-operativity” value is listed as “no difference”.

B2: Wnt11: Recombinant Wnt peptide purchased from R&D systems (protein, UniProt O96014 25-354, looked up)
Protein Wnt-11: IKWLALSKTPSALALNQTQHCKQLEGLVSAQVQLCRSNLELMHTVVHAAREVMKACRRAFADMRWNCSSIELAPNYLLDLERGTRESAFVYALSAAAISHAIARACTSGDLPGCSCGPVPGEPPGPGNRWGGCADNLSYGLLMGAKFSDAPMKVKKTGSQANKLMRLHNSEVGRQALRASLEMKCKCHGVSGSCSIRTCWKGLQELQDVAADLKTRYLSATKVVHRPMGTRKHLVPKDLDIRPVKDSELVYLQSSPDFCMKNEKVGSHGTQDRQCNKTSNGSDSCDLMCCGRGYNPYTDRVVERCHCKYHWCCYVTCRRCERTVERYVCK
Regarding B2, the “intracellular calcium mobilization” value in test [3] is “did not mobilize [Ca^2+]i”.

B3: Wnt3A: Recombinant Wnt peptide purchased from R&D systems (protein, UniProt P56704 19-352, looked up)
Protein Wnt-3a: SYPIWWSLAVGPQYSSLGSQPILCASIPGLVPKQLRFCRNYVEIMPSVAEGIKIGIQECQHQFRGRRWNCTTVHDSLAIFGPVLDKATRESAFVHAIASAGVAFAVTRSCAEGTAAICGCSSRHQGSPGKGWKWGGCSEDIEFGGMVSREFADARENRPDARSAMNRHNNEAGRQAIASHMHLKCKCHGLSGSCEVKTCWWSQPDFRAIGDFLKDKYDSASEMVVEKHRESRGWVETLRPRYTYFKVPTERDLVYYEASPNFCEPNPETGSFGTRDRTCNVSSHGIDGCDLLCCGRGHNARAERRREKCRCVFHWCCYVSCQECTRVYDVHTCK
B3: in test [3], the “intracellular calcium mobilization” value is “induce intracellular calcium mobilization”; the “rise and fall time of [Ca2+]i release” value is reported as “shortest”; the “dependence of time constants (dwell time) on Wnt ligand concentration / co-operativity” value is “negative co-operativity”. Further, in test [2], the “Pearson coefficient of nuclear co-localization of β-catenin” value was “significant increase”.

B4: Wnt4: Recombinant Wnt peptide purchased from R&D systems (protein, UniProt P56705 23-351, looked up)
Protein Wnt-4: SNWLYLAKLSSVGSISEEETCEKLKGLIQRQVQMCKRNLEVMDSVRRGAQLAIEECQYQFRNRRWNCSTLDSLPVFGKVVTQGTREAAFVYAISSAGVAFAVTRACSSGELEKCGCDRTVHGVSPQGFQWSGCSDNIAYGVAFSQSFVDVRERSKGASSSRALMNLHNNEAGRKAILTHMRVECKCHGVSGSCEVKTCWRAVPPFRQVGHALKEKFDGATEVEPRRVGSSRALVPRNAQFKPHTDEDLVYLEPSPDFCEQDMRSGVLGTRGRTCNKTSKAIDGCELLCCGRGFHTAQVELAERCSCKFHWCCFVKCRQCQRLVELHTCR
B4: in test [3], the “intracellular calcium mobilization” value is “induce intracellular calcium mobilization”; the “rise and fall time of [Ca2+]i release” value is listed as “slowest”; the “dependence of time constants (dwell time) on Wnt ligand concentration / co-operativity” value is on record as “negative co-operativity”. Moreover, in test [2], the “Pearson coefficient of nuclear co-localization of β-catenin” value is listed as “significant increase”.
